# From patent publication US20140341917A1 (Merck KGaA, published 2014)
# Key:
# human PD-L1 [1] = molecular target: T1, human PD-L1 (human, UniProt Q9NZQ7 19-238, limits assumed); assay: Biacore kinetic profile
# T1 construct: Protein used in the Biacore assays of 3.1
# human PD-L1 [2] = molecular target: T1, human PD-L1; assay: Biacore; relative to A09-188-1
# T1 sequence (Q9NZQ7 19-238 limits assumed): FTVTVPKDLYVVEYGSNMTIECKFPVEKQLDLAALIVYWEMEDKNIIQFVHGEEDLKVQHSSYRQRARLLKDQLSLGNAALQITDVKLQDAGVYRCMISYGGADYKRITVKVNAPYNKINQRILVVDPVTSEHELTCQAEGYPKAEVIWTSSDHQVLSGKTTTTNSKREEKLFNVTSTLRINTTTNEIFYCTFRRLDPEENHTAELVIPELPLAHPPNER
binder,measurement,setting,value
"A09-245-2 (antibody, human IgG1, lambda, V domains shown, also called VL-A31G; VH-M31S, M33L, M35F, S63T, I93V) VH: EVQLLESGGGLVQPGGSLRLSCAASGFTFSSYLMFWVRQAPGKGLEWVSSIYPSGGITFYADTVKGRFTISRDNSKNTLYLQMNSLRAEDTAVYYCARIKLGTVTTVDYWGQGTLVTVSS VL: QSALTQPASVSGSPGQSITISCTGTSSDVGGYNYVSWYQQHPGKAPKLMIYDVSNRPSGVSNRFSGSKSGNTASLTISGLQAEDEADYYCSSYTSSSTRVFGTGTKVTVLG",t½,human PD-L1 [1],1.29 h
"A09-219-1 (antibody, human IgG1, lambda, V domains shown, also called VH-M31S, M33I, M35F, S63T, I93V) VH: EVQLLESGGGLVQPGGSLRLSCAASGFTFSSYIMFWVRQAPGKGLEWVSSIYPSGGITFYADTVKGRFTISRDNSKNTLYLQMNSLRAEDTAVYYCARIKLGTVTTVDYWGQGTLVTVSS VL: QSALTQPASVSGSPGQSITISCTGTSSDVGAYNYVSWYQQHPGKAPKLMIYDVSNRPSGVSNRFSGSKSGNTASLTISGLQAEDEADYYCSSYTSSSTRVFGTGTKVTVLG",Kd,human PD-L1 [1],0.18 nM
same,t½,human PD-L1 [1],4.64 h
same,Relative KD,human PD-L1 [2],0.03
"A09-241-2 (antibody, human IgG1, lambda, V domains shown, also called VL-A31G; VH-M31I, M33I, S63T, I93V) VH: EVQLLESGGGLVQPGGSLRLSCAASGFTFSIYIMMWVRQAPGKGLEWVSSIYPSGGITFYADTVKGRFTISRDNSKNTLYLQMNSLRAEDTAVYYCARIKLGTVTTVDYWGQGTLVTVSS VL: QSALTQPASVSGSPGQSITISCTGTSSDVGGYNYVSWYQQHPGKAPKLMIYDVSNRPSGVSNRFSGSKSGNTASLTISGLQAEDEADYYCSSYTSSSTRVFGTGTKVTVLG",Kd,human PD-L1 [1],0.32 nM
same,t½,human PD-L1 [1],2.77 h
same,Relative KD,human PD-L1 [2],0.07
"A09-215-1 (antibody, human IgG1, lambda, V domains shown, 193V read as I93V; also called VH-M33L, M35F, S63T, 193V) VH: EVQLLESGGGLVQPGGSLRLSCAASGFTFSMYLMFWVRQAPGKGLEWVSSIYPSGGITFYADTVKGRFTISRDNSKNTLYLQMNSLRAEDTAVYYCARIKLGTVTTVDYWGQGTLVTVSS VL: QSALTQPASVSGSPGQSITISCTGTSSDVGAYNYVSWYQQHPGKAPKLMIYDVSNRPSGVSNRFSGSKSGNTASLTISGLQAEDEADYYCSSYTSSSTRVFGTGTKVTVLG",Kd,human PD-L1 [1],1.28 nM
same,t½,human PD-L1 [1],0.843 h
same,Relative KD,human PD-L1 [2],0.24
"A09-222-1 (antibody, human IgG1, lambda, V domains shown, also called VH-M31S, M33L, S63T, I93V) VH: EVQLLESGGGLVQPGGSLRLSCAASGFTFSSYLMMWVRQAPGKGLEWVSSIYPSGGITFYADTVKGRFTISRDNSKNTLYLQMNSLRAEDTAVYYCARIKLGTVTTVDYWGQGTLVTVSS VL: QSALTQPASVSGSPGQSITISCTGTSSDVGAYNYVSWYQQHPGKAPKLMIYDVSNRPSGVSNRFSGSKSGNTASLTISGLQAEDEADYYCSSYTSSSTRVFGTGTKVTVLG",Kd,human PD-L1 [1],1.24 nM
same,t½,human PD-L1 [1],0.785 h
same,Relative KD,human PD-L1 [2],0.23
"A09-242-2 (antibody, human IgG1, lambda, V domains shown, also called VL-A31G; VH-M33L, M35F, S63T, I93V) VH: EVQLLESGGGLVQPGGSLRLSCAASGFTFSMYLMFWVRQAPGKGLEWVSSIYPSGGITFYADTVKGRFTISRDNSKNTLYLQMNSLRAEDTAVYYCARIKLGTVTTVDYWGQGTLVTVSS VL: QSALTQPASVSGSPGQSITISCTGTSSDVGGYNYVSWYQQHPGKAPKLMIYDVSNRPSGVSNRFSGSKSGNTASLTISGLQAEDEADYYCSSYTSSSTRVFGTGTKVTVLG",Kd,human PD-L1 [1],0.76 nM
same,t½,human PD-L1 [1],0.927 h
same,Relative KD,human PD-L1 [2],0.16
"A09-212-1 (antibody, human IgG1, lambda, V domains shown, 193V read as I93V; also called VH-M33I, M35F, S63T, 193V) VH: EVQLLESGGGLVQPGGSLRLSCAASGFTFSMYIMFWVRQAPGKGLEWVSSIYPSGGITFYADTVKGRFTISRDNSKNTLYLQMNSLRAEDTAVYYCARIKLGTVTTVDYWGQGTLVTVSS VL: QSALTQPASVSGSPGQSITISCTGTSSDVGAYNYVSWYQQHPGKAPKLMIYDVSNRPSGVSNRFSGSKSGNTASLTISGLQAEDEADYYCSSYTSSSTRVFGTGTKVTVLG",t½,human PD-L1 [1],4.24 h
"A09-216-1 (antibody, human IgG1, lambda, V domains shown, 193V read as I93V; also called VH-M31I, M33L, S63T, 193V) VH: EVQLLESGGGLVQPGGSLRLSCAASGFTFSIYLMMWVRQAPGKGLEWVSSIYPSGGITFYADTVKGRFTISRDNSKNTLYLQMNSLRAEDTAVYYCARIKLGTVTTVDYWGQGTLVTVSS VL: QSALTQPASVSGSPGQSITISCTGTSSDVGAYNYVSWYQQHPGKAPKLMIYDVSNRPSGVSNRFSGSKSGNTASLTISGLQAEDEADYYCSSYTSSSTRVFGTGTKVTVLG",Kd,human PD-L1 [1],0.91 nM
same,t½,human PD-L1 [1],1.3 h
same,Relative KD,human PD-L1 [2],0.17
"A09-247-2 (antibody, human IgG1, lambda, V domains shown, also called VL-A31G; VH-M31S, M33L, S63T, I93V) VH: EVQLLESGGGLVQPGGSLRLSCAASGFTFSSYLMMWVRQAPGKGLEWVSSIYPSGGITFYADTVKGRFTISRDNSKNTLYLQMNSLRAEDTAVYYCARIKLGTVTTVDYWGQGTLVTVSS VL: QSALTQPASVSGSPGQSITISCTGTSSDVGGYNYVSWYQQHPGKAPKLMIYDVSNRPSGVSNRFSGSKSGNTASLTISGLQAEDEADYYCSSYTSSSTRVFGTGTKVTVLG",Kd,human PD-L1 [1],0.76 nM
same,t½,human PD-L1 [1],0.963 h
same,Relative KD,human PD-L1 [2],0.16
"A09-214-1 (antibody, human IgG1, lambda, V domains shown, 193V read as I93V; also called VH-M31I, M33I, S63T, 193V) VH: EVQLLESGGGLVQPGGSLRLSCAASGFTFSIYIMMWVRQAPGKGLEWVSSIYPSGGITFYADTVKGRFTISRDNSKNTLYLQMNSLRAEDTAVYYCARIKLGTVTTVDYWGQGTLVTVSS VL: QSALTQPASVSGSPGQSITISCTGTSSDVGAYNYVSWYQQHPGKAPKLMIYDVSNRPSGVSNRFSGSKSGNTASLTISGLQAEDEADYYCSSYTSSSTRVFGTGTKVTVLG",Kd,human PD-L1 [1],0.4 nM
same,t½,human PD-L1 [1],2.98 h
same,Relative KD,human PD-L1 [2],0.08
